Experimental data from patent US20230288411A1, “POLYPEPTIDE, MULTIMER, SOLID PHASE, MEASUREMENT METHOD FOR TEST SUBSTANCE, AND REAGENT KIT” (SYSMEX CORPORATION, priority 2020, published 2023).
Entries after “also recorded” stand apart in the source; their conditions may differ.

Key:
L-biotin-labeled albumin = experiment: SPR (Biacore T200) binding evaluation to L-biotin-labeled albumin; design: species or system bovine; conditions: analyte flowed at 30 μL/min up to 100 nM, single cycle method, albumin immobilized on sensor chip
Description: (§1) A binding ability of D-streptavidin obtained in Example 1 to D-biotin as a natural form and L-biotin as an optical isomer of D-biotin was evaluated by an intermolecular interaction analyzer (Biacore T200) using SPR as a measurement principle.
Similarly, L-biotin-labeled albumin was prepared using L-biotin-AC5-OSu [see (Amidation of L-biotin) described in Example 3 above].
Bovine serum albumin was immobilized on flow cells 1 and 3 of a CMS sensor chip (manufactured by Cytiva) of a Biacore T200 system at a target level of 400 RU by an amine coupling method with an amine coupling kit (Cytiva). Further, L-biotin-labeled albumin and D-biotin-labeled albumin were immobilized at a target level of 400 RU to flow cells 2 and 4, respectively, similarly by an amine coupling method. Blocking was performed in each flow cell with 1 M ethanolamine solution, pH 8.5 (manufactured by Cytiva). […]
(§2) Using HBS-EP+(manufactured by Cytiva) as a running buffer, the prepared D-tamavidin (trademark) 2 was flowed into each flow cell at a flow rate of 30 μL/min in the range of 100 pM to 100 nM by a single cycle method, and binding and dissociation to D-biotin or L-biotin was evaluated by Biacore T200 Evaluation Software (manufactured by Cytiva).

D-biotin-labeled albumin = experiment: SPR (Biacore T200) binding evaluation to D-biotin-labeled albumin; design: species or system bovine; conditions: analyte flowed at 30 μL/min up to 100 nM, single cycle method, albumin immobilized on sensor chip
Description: as §1
An N,N-dimethylformamide solution (16.3 μL) containing 10 mg/mL D-biotin-AC5-OSu (manufactured by DOJINDO LABORATORIES) was added to 2.8 mL of 50 mg/mL bovine serum albumin/0.1 M phosphate buffer solution (pH 7.5), and the mixture was stirred, then allowed to stand at 35° C. for 1 hour. Thereafter, desalting was performed by PD-10 (17085101, manufactured by Cytiva) equilibrated with a 0.1 M phosphate buffer (pH 7.5), and D-biotin-labeled albumin was recovered. The number of labeled D-biotin per molecule of albumin by HABA method was 0.4.
Bovine serum albumin was immobilized on flow cells 1 and 3 of a CMS sensor chip (manufactured by Cytiva) of a Biacore T200 system at a target level of 400 RU by an amine coupling method with an amine coupling kit (Cytiva). […]
as §2

B1: D-tamavidin (trademark) 2: avidin-like protein derived from Pleurotus cornucopiae consisting of D amino acids, 2nd to 141st amino acid sequence of SEQ ID NO: 4 (peptide, listed as Pleurotus cornucopiae)
chain: SDVQSSLTGTWYNELNSKMELTANKDGTLTGKYLSKVGDVYVPYPLSGRYNLQPPAGQGVALGWAVSWENSKIHSATTWSGQFFSESSPVILTQWLLSSSTARGDVWESTLVGNDSFTKTAPTEQQIAHAQLHCRAPRLK
modifications: D-amino acids
**Q.** With B1 as the molecule, how does the “binding to L-biotin-labeled albumin (SPR sensorgram)” value (L-biotin-labeled albumin) read?
**A.** Its value is “increase in the SPR signal was observed; also recorded: binds”.

**Q.** And the “binding to D-biotin-labeled albumin (SPR sensorgram)” value (D-biotin-labeled albumin)?
**A.** The value was “No increase in SPR signal; also recorded: does not substantially bind”.
